Test results taken from patent publication US20170247475A1 (Boehringer Ingelheim, published 2017).
Where a chain is given by its changes, count along the chain named. Each block holds one binder with its values, some of them ahead of it.

Assays:
[1] = molecular target: T1, recombinant human VEGF165 (human, UniProt P15692-4 27-191); experiment: Biacore, periplasmic extract on hVEGF165 chip
T1 construct: also called hVEGF165; rhVEGF165
Target sequence in this assay (P15692 other isoform, or with tags, fused parts or gaps limits assumed): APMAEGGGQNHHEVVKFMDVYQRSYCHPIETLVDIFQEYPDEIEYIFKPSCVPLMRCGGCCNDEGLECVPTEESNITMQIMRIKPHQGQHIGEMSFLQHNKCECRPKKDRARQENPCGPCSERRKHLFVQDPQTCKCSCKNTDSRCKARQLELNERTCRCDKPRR

[2] = molecular target: T1, recombinant human VEGF165; experiment: SPR Biacore T100, hVEGF165 on chip, Two State Reaction model
Description: (§1) Samples are injected for 2 min and allowed to dissociate up to 20 min at a flow rate of 45 μI/min. In between sample injections, the chip surface is regenerated with 100 mM HCl. HBS-EP+(Hepes buffer pH7.4+EDTA) is used as running buffer. Binding curves are fitted using a Two State Reaction model by Biacore T100 Evaluation Software v2.0.1.
^{(a)}Heterogeneous binding curve resulting in no 1:1 fit, curves are fitted using a Two State Reaction model by Biacore T100 Evaluation Software v2.0.1
Target sequence in this assay (P15692 other isoform, or with tags, fused parts or gaps limits assumed): as above

[3] = molecular target: T1, recombinant human VEGF165; experiment: VEGF165/VEGFR2 blocking AlphaScreen
Target sequence in this assay (P15692 other isoform, or with tags, fused parts or gaps limits assumed): as above

[4] = molecular target: T1, recombinant human VEGF165; experiment: VEGF165/VEGFR2 AlphaScreen
Target sequence in this assay (P15692 other isoform, or with tags, fused parts or gaps limits assumed): as above

[5] = molecular target: T1, recombinant human VEGF165; experiment: Biacore on VEGF165 (Example 5.5)
Description: as §1
Target sequence in this assay (P15692 other isoform, or with tags, fused parts or gaps limits assumed): as above

VEGF [6] = experiment: cell-based or functional assay
VEGF [7] = experiment: cell-based or functional assay; remark: listed apart in the source
[8] = molecular target: T1, recombinant human VEGF165; experiment: hVEGF165/hVEGFR1-Fc competition AlphaScreen
Description: (§2) Finally, streptavidin donor beads (20 μg/ml) are added and after 1 hour of incubation in the dark, fluorescence is measured on the Envision microplate reader.
Target sequence in this assay (P15692 other isoform, or with tags, fused parts or gaps limits assumed): as above

[9] = molecular target: T1, recombinant human VEGF165; experiment: hVEGF165/hVEGFR2-Fc competition AlphaScreen
Description: as §2

[10] = molecular target: T2, recombinant mouse VEGF164 (mouse, UniProt Q00731-2 27-190); experiment: binding ELISA, coated rmVEGF164
T2 construct: biotinylated in the mVEGFR2 AlphaScreen; also called rmVEGF164; mVEGF164
T2 sequence (looked up): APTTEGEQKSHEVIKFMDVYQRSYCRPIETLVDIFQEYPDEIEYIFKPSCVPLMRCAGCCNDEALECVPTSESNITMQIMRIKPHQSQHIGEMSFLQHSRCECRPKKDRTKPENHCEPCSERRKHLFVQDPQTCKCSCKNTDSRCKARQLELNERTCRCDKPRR
Description: Cross-reactivity to mouse VEGF164 is determined using a binding ELISA. […] Wells are blocked with a casein solution (1% in PBS). […] A mouse VEGF164 reactive mAb is included as positive control.

[11] = molecular target: T1, recombinant human VEGF165; experiment: AlphaScreen competition, 0.05 nM hVEGF165 and 0.05 nM hVEGFR2-Fc; blocked: hVEGFR2-Fc
[12] = molecular target: T1, recombinant human VEGF165; experiment: competition AlphaScreen, blocking of hVEGF165 binding to hVEGFR1-Fc
[13] = molecular target: T1, recombinant human VEGF165; experiment: AlphaScreen competition, 0.05 nM hVEGF165 and 0.05 nM hVEGFR1-Fc; blocked: hVEGFR1-Fc
[14] = molecular target: T1, recombinant human VEGF165; experiment: competition AlphaScreen, blocking of hVEGF165 binding to hVEGFR2-Fc
[15] = molecular target: T1, recombinant human VEGF165; experiment: as above; remark: listed apart in the source
[16] = molecular target: T1, recombinant human VEGF165; experiment: AlphaScreen competition, 0.05 nM hVEGF165 and 0.05 nM hVEGFR1-Fc; blocked: hVEGFR1-Fc; remark: listed apart in the source
[17] = molecular target: T1, recombinant human VEGF165; experiment: kd1; SPR Biacore T100 on hVEGF165
[18] = molecular target: T1, recombinant human VEGF165; experiment: AlphaScreen competition, 0.05 nM hVEGF165 and 0.05 nM hVEGFR2-Fc; blocked: hVEGFR2-Fc; remark: listed apart in the source
[19] = molecular target: T1, recombinant human VEGF165; experiment: AlphaScreen competition, 0.05 nM hVEGF165 and 0.05 nM hVEGFR1-Fc; blocked: hVEGFR1-Fc; remark: listed apart in the source
[20] = molecular target: T1, recombinant human VEGF165; experiment: competition AlphaScreen, blocking of hVEGF165 binding to hVEGFR2-Fc; remark: listed apart in the source

Binding level (RU) [1]: 768 RU
Kd [2]: 700 pM
kd2 [2]: 0.00024 s⁻¹
% inhibition [3]: 100%
IC50 [3]: 152 pM
% inhibition [4]: 100%
IC50 [4]: 169 pM
Kd [5]: 560 pM
% inhibition, VEGF HUVEC proliferation assay (VEGF [6]): 92%
IC50 (nM), VEGF HUVEC proliferation assay (VEGF [6]): 0.68 nM
IC50 (nM), VEGF HUVEC Erk phosphorylation assay (VEGF [7]): 0.37 nM
% inhibition [8]: 41%
IC50 [8]: 900 pM
% inhibition [9]: 100%
IC50 [9]: 160 pM
binding result [10]: no binding (tested: 500 nM-32 pM)
B1: VEGFBII23B04 (VHH)
VHH: EVQLVESGGGLVQTGDSLRLSCEVSGRTFSSYSMGWFRQAQGKEREFVVAISKGGYKYDSVSLEGRFTISKDNAKNTVYLQINSLKPEDTAVYYCASSRAYGSSRLRLADTYEYWGQGTQVTVSS
notes: also called VEGFBII23B4; VEGFBII23B04 (wt)

% inhibition [3]: 100%
IC50 [3]: 143 pM
IC50 (read off the curve) [11]: ~400 pM
IC50 (read off the curve) [12]: ~400 pM
IC50 (read off the curve) [13]: ~800 pM
IC50 (read off the curve) [14]: ~400 pM
IC50 (read off the curve) [15]: ~400 pM
IC50 (read off the curve) [16]: ~500 pM
koff [17]: 0.013 s⁻¹
IC50 (read off the curve) [18]: ~500 pM
Kd [5]: 360 pM
% inhibition, VEGF HUVEC proliferation assay (VEGF [6]): 92%
IC50 (nM), VEGF HUVEC proliferation assay (VEGF [6]): 0.6 nM
IC50 (read off the curve) [19]: ~500 pM
IC50 (read off the curve) [20]: ~400 pM
B2: VEGFBII038 (VHH)
VHH: B1 VHH with E1D, T14P, D16G, E23A, V24A, Q41P, S60A, K71R, K86R, Q120L
notes: also called VEGFBII0038; VEGFBII00038
